From patent publication US12332249B1, “Biomolecule detection method using diffusion ordered spectroscopy” (KUWAIT UNIVERSITY, priority 2024, dated 2025)

Columns and labels:
[1] = aqueous native avidin; cited from earlier work
[2] = Hydrodynamic radius from DOSY diffusion coefficient by Stokes-Einstein equation; type: physicochemical; conditions: obtained using Equation 2 (Stokes-Einstein)
Procedure: According to Stokes-Einstein equation mentioned below, the diffusion coefficient of solutes is directly linked to the hydrodynamic radius.
Where Rh is the hydrodynamic radius, kB is the Boltzmann constant, T is the temperature in K and η is the solution viscosity ([…] for D2O, and 30° C.) and D is the diffusion coefficient. The diffusion coefficient value is directly proportional to the temperature (T) and inversely proportional to the hydrodynamic radius. Thus, the hydrodynamic radius is related to the molecular weight, the higher the molecular weight, the larger the radius, the lower the diffusion and vice versa.

Question: For “avidin: protein with four identical subunits, each containing one binding site for biotin; from Sigma Aldrich”, which “hydrodynamic radius by dynamic light scattering (DLS)” value [1] is on record?
Answer: 26.4±0.3 Å

Question: And the “hydrodynamic radius (Rh)” value [2]?
Answer: 22.02 Å
